The text below walks through data of PMC7283332 (2020).

One may read the Kd as the equilibrium constant for the complex coming apart. Read a high Kd as a looser complex.

The labels stand for the following.
B1: Fc-iNKG2D.YA (Fc fusion)
chain: FLNSLFNQEVQIPLTESYCGPCPKNWICYKNNCYQFFDESKNWYESQASCMSQNASLLKVYSKEDQDLLKLVKSAHWMGLVHIPTNGSWQWEDGSILSPNLLTIIEMQKGDCALYASSFKGYIENCSTPNTYICMQRTV
modifications: biotinylated only in the ELISA on coated ligand-Fc proteins

What all share (experiment): BLI
(In BLI a coated tip is dipped into the sample, and binding shifts an interference pattern.)

The target in assay [1] is ULBP2.S3 (U2S3), monomeric α1α2 domain variant (human, UniProt Q9BZM5).
In a further assay the target is T1, Fc-wtNKG2D (human, UniProt P26718 78-216).
T1 chain: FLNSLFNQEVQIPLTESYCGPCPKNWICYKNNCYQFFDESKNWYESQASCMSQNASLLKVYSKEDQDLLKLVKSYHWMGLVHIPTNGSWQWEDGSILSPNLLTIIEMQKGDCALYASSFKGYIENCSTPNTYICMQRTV

The assay “Fc-iNKG2D.YA” concerns the target B1.

Regarding B1, in assay [1], the Kd is 28 nM.

B2: ULBP2.R81W, monomeric α1α2 domain (domain or fragment)
chain: DPHSLCYDITVIPKFRPGPRWCAVQGQVDEKTFLHYDCGNKTVTPVSPLGKKLNVTTAWKAQNPVLREVVDILTEQLWDIQLENYTPKEPLTLQARMSCEQKAEGHSSGSWQFSFDGQIFLLFDSEKRMWTTVHPGARKMKEKWENDKVVAMSFHYFSMGDCIGWLEDFLMGMDSTLEPSAGAP
B2: the Kd stood at 8 nM with Fc-wtNKG2D and 3600 nM with Fc-iNKG2D.YA.

B3: ULBP2 α1α2 domain, C-terminal 6×-His (domain or fragment)
chain: DPHSLCYDITVIPKFRPGPRWCAVQGQVDEKTFLHYDCGNKTVTPVSPLGKKLNVTTAWKAQNPVLREVVDILTEQLRDIQLENYTPKEPLTLQARMSCEQKAEGHSSGSWQFSFDGQIFLLFDSEKRMWTTVHPGARKMKEKWENDKVVAMSFHYFSMGDCIGWLEDFLMGMDSTLEPSAGAP
In the assay with Fc-wtNKG2D, B3 yielded a dissociation constant (Kd) of 350 nM. This counts as sub-micromolar.
